Results published in the nanobody polyreactivity screen of Harvey et al. (2022).

Test: yeast display, Sf9 membrane polyspecificity reagent, FACS + sequencing; frameworks hold sequencing errors
Procedure, shortened: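 In a synthetic yeast display library (Saccharomyces cerevisiae BJ5465), nanobody expression was induced with galactose for 36–48 hours. FACS gates were set low and high (top ~1%) using anti-HA fluorescence for expression and streptavidin fluorescence for binding of the Sf9 membrane reagent. Each polyreactivity label is drawn from the gate of origin.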

Row | Sequence | polyreactivity (PSR sort gate)
1 | QVQLVESGGGLVQAGGRLRLSCAASGSIFQSYAMGWYRQAPGKERELVAVITGGGGSTYYADSVKGRFTISRDNAKNTVYLQMNSLKPEDTAVYYCAARPVTSYAYGSWGQGTQVTVSS | low polyreactivity
2 | QVQLVESGGGLVQAGGSLRLSCAASGFIIDTYPMGCYRQAPGKERELVAAITRSGGSTYYADSVKGRFTISRDNAKNTVYLQMNSLKPEDTAVYYCAARQRYTRYDYWGQGTQVTVSW | high polyreactivity
3 | QVQLVESGGGLVQAGGSLRLSCAASGRIIGHYAMGWYRQAPGKERDLVAAISRGGSTYYADSVKGRFTISRDNAKNTVYLQKTSLKPEDTAVYYCAVRSGRRNYDRPAFGYWGQGTQVTVSS | high polyreactivity
4 | QVQLVESGGGLVQAGGSLRLSCAASGIIFSFYAMGWYRQAPGKERELVADITLSGGRTYYADSVKGRFTISRDNAKNTVYLQMNSLKPEDTAVYYCNDETYERGDYWGQGTKVTVSS | high polyreactivity
5 | QVQLVESGGGLVQAGGSLRLSCAASGRIFDTYVMRWYRQAPGKERELVAAISGSGGSTYYADSVKGRFTISRDTAKNTVYLQMNSLKPEDTAVYYCAAVVLGRLLGFRGDYNYWGQGPQVTVSS | high polyreactivity
6 | QVQLVESGGGLVQAGGSLRLSCAASGITFTGNAMGWYRQAPGKERELVAAISNRGGSTYYADSVKGRFTISRDNAKNTVYLQMNSLKPEDTAVYYCRTSTPRRVSGNYWGQGTQVTVTS | high polyreactivity
7 | QVQLVESGGGLVQAGGSLRLSCAASGRTFTGYAMGWDRQAPGKERELVAGISYRGGSTYYADSVKGRFTISRDNAKNTVYLQMNSLKQEVTAVYYCARDYSRHKGDYWGQGTQVTVSS | low polyreactivity
8 | QVQLVESGGGLVQAGGSLRLICAASGFIFVYYVMGWYRQAPGKERELVAAITQSGGSTYYADSVKGRFTISRDNAKNTVYLQMNSLKPEDTAVYYCAAYRRTTGGGYDYWGQGTQVTVSS | high polyreactivity
9 | QVQLVESGGGLVQAGGSLRLSCAASGRTFDTYVMGWYRQAPGKERELVAAISIGGNTNYADSVKGRFTISRDNAKNTVYLQMNSLKPEDTAVYYCAKAWSGISSRDYDLDYWGQGTQVTVSS | low polyreactivity
10 | QVQLVESGGGLVQARGSLRLSCAASGNTIIRYAMGWYRQAPGKERELVAAISYAGGRTYYADSVKGRFTISRDNAKNTVYLQMNSLTPEDTAVYYCNAASRYGGDYWGQGTQVTVSS | high polyreactivity
11 | QVHLVESGGGLVQAGGSLRLSCAASGRTFAYNTMGWYRQAPGKERELVAAISSDGSTNYADSVKGRFTISRDNAKNTVYLQMNSLKPEDTAVYYCAKGEGTGYSDTQVYEHDYWGQGTQVTVSS | low polyreactivity
12 | QVQLVESGGGLVQAGGSLRLSCAASGFIFSSNAMGGYRQAPGTERELVATIDRDGGITYADSVKGRFTISRDNAKTTVYIQMNSLKPEDTEVYYCAADPSSYGRFTYDYWGQGTQVTVSS | low polyreactivity
13 | QVQLVESGGGLVQAGGSLRLSCAASGSIFAYYAMGWYRQAPGKESELVARITYSTDGTYYADSVKGRFTISRDNAKNTVYLQMNSLKPEDTAVYYCAVDTWWGFKRYKFDYWGQGTQVTVSS | low polyreactivity
14 | QVQLVESGGGLVQAGGSLRLSCAASGITFSHNAMGWSRPAPGKERELVAVIRWSGGRTYYADSVKGRFTISRDNAKNTVYLQMNSLKPEDTAVYYCAARPSTAFPYGKIMDYWGQGTQVTVSS | low polyreactivity
15 | QVQLVESGGGLVQAGGSLRLSCAASGRTFNYYGMGWYRQAPGKERELVAAINSGDNTYYADSVKGRFTISRDNAKNTVYLQMTSLKPEDTAVYYCNTDAFWYYYSWYDYWGQGTQVTVSS | low polyreactivity
16 | QVQLVESGGGLVQAGGSLRLSCAASGFIFIRYAMGWYRQAPGKERELVAAISASGVRTYYADSVKGRFTISRDNAKNTVYLQMNSLKPEDTAVYDCAVRSAWVYGIGRYYWGQGTQVTVSS | high polyreactivity
17 | QDNLVESGGGLVQAGGSLRLICAASGSTNRSNAMGWYRQAPGKERELVAANSRTGGRTYYADSVKGRFTISRDNAKNTVYLQMKCLNQEDTAVYYCARADKRLEYSENYYWGQGTQVTVSS | high polyreactivity
18 | QVQLVESGGGLVQAGGSLRLSCAASGRIFVRNAMGWYRQAPGKERELVAAITTGGRTYYADSVKGRFTISRDNAKNTVYVQMNSVKPEDTAVYYCAATGDRKGYKYIYSDTNDYWGQGTQVTVSS | low polyreactivity
19 | QVQLVESGGGLVQAGGRLRLSCAASGFTFRAFTMGWYRQAPGKERELVAAITYSGGRTYYADSVKGRFTISRDNAKNTVYLQMNSLKPEDTAVYYCAKRGWALSEYYYWGQGTQVTVSS | high polyreactivity
20 | QVQLVESGGGLVQAGGSLRLSCAASGFTFYVNAMGWYRQAPGKEREFVAAISASGASTRYADSVKGRFTISRDNAKNTVYLQMNSLKPEDTAVYYCAADAPAWILEAYGYWGQGTQVTVSS | low polyreactivity
21 | QVQLVESGGGLVQAGGSLRLSCAASGSIFGHNTMGWYRQAPVKERELVAAISSGSRTNSADTVKGRFTISRDNAKNTVYLQMKSLKPEDTAVDYCATKVYSSRYRGYGYWGQGPQVTVSS | high polyreactivity
22 | QVQLVESGGGLVQAGGSLRLSCAASGSIFSYNAMGWYRQAPGKEMELVAAISSGGSTYYADSVKGSFTISRDNAKNTVYLQMNSLKPEDTAVYYCNVYYLIWPYGHQVKRRDYWGQGTQVTVSS | low polyreactivity

Row | Sequence | polyreactivity (PSR sort gate)
23 | QVQLVESGGGLVQAGGSLSLSCAASGPTFGEYVMGWYRQAPGKERELVASISRRGGSTYYADSVKGRFTISRDNAKNTVYLQMNSLKPEDTAVYYCAKYRTQWSKNLYPYGFDYWGQGTQVTVSS | low polyreactivity
24 | QVQLVESGGGLVQAGGSLRLSCAASGYTFHGYAMGWYRQAPGKERELVAVITQRGGSTSYADSVKGRFTISRDNAKNTVYLQMNSLKPEDTAVYYCNADGPSTPWVDYGYWGQGTQVTVSS | low polyreactivity
25 | QVQLVESGGGLVQAGGSLRLSCAASGFTFKRNAMGWYRQAPGKERELVAAISWSGSRTYADSVKGRFTISRDNAKNTVYLQMNSLKPEDTAVYYCAASPGRRRRPYASLIRYDYWGQGTQVTVSS | high polyreactivity
26 | QVQLVESGGGLVQAGGSLRLSSDASGRIFRYYSMGWYRQAPGKERELVAAITRGGYTNYADSVKGRFTISRDNAKITVYFQMNSLKQEDTAVYYCATRQSWYPRWMDYWGQGTQVTVSS | high polyreactivity
27 | QVQLVESGGGLVQAGGSLRLSCAASGRTFPSYAMGWYRQAPGKERELVAGIRWGAGRTYYADSVKGRFTISRDNAKNTVYLQMNSLKPEVTAVYYCAADPWSGSDYWGQGTQVTVSS | low polyreactivity
28 | QVQLVESGGGIVQAGGSLRLSCAASGSTLWGNVMRSYRQAPGKERELVAVISKTGGSTYYADSVKGRFTISRDNAKNTVYLQMNSLKPEDSAVYYCATRWPYRSDWGLGTQVTVSS | high polyreactivity
29 | QVQLVESGGGLVQAGGSLRLSCAASGFTFRYYAMGWYRQAPGKEREFVAAITYNGVSTYYADSVKGRFTISRDNAKNTVYLQMNSLKPEDTAVYYCAADVLLSRSNTPQRPSRLYYWGQGTQVTVSS | high polyreactivity
30 | QVQLVESGGGLVQAGGSLRLSCAASGGTFFKNAMGWYRQAPGKERELVAVIDTISTSTYYADSVKGRFTISRDNAKNTVYLQMNSLKPEDTAVYYCAAEYGPGLTEGLYYYWGQGTQVTVSS | high polyreactivity
31 | QVQLVESGGGLVQAGGSLRLSCAASGFTYPPYAMGWYRQAPGKERELVAAISSAGSTKYADSVKGRFTISRDNAKNTVYLQMNSLKPEDTAVYYCAARWARSYDYWGQGTQVTVSS | low polyreactivity
32 | QVQLVESGGGLVQAGGSLRLSCAASGSIFTVNAMGWYRQAPGKERELVAAISSGGSTHYADSVKGRFTISRDNAKNTVYLQMNSLKPEDTAVYYCAAEVSYYLNEFDYWGQGTQVTVSS | low polyreactivity
33 | QVQLVESGGGLVQAGGSLRLSCAASGSIFPYNAMGWYRQAPGKERELVATISSGGSTNYADSVKGRFTISRDNAKNTVYLHMNSLKPEDTAVYYCAADVIVFYYAPNYWGDIGYGYWGQGTQVTVSS | low polyreactivity
34 | QVQLVESGGGLVQAGGSLRLSCAASGFIFWFYAMGWYRQAPGKERELVASISASGGSTNYADSVKGRFTISRDYAKKTVYLQMNSLKPEDTAVYYCAARKRYLRGYWGQGTQVTVSS | high polyreactivity
35 | QVQLVESGGGLVQAGGSLRLSCAASGSIYVNAMGWYRQAPGKERELVAVISKSGGSTYYADSVKGRFTISRDNAKNTVYLQMNSLKPEDTAVYYCATRGVSPSRPGYYWGQGTQVTVSS | high polyreactivity
36 | QVQLVESGGGLVQAGGSLRLSCAASGRTFSQYAMGWYRPAPGKERELVAAITRSGSRTYYADSVKGRFTISRDNAKNTVYLQMNSLKPEDTAVYYCAADGHAGYPIDEYYYWGQGTQVTVSS | high polyreactivity
37 | QVQLVESGGGVVQAGGSLRLSCAASGFIFWVYALGWYRQAPGKASELVAAITGRGGRTYYVDAVKGRFTISRDNAKNTVYLQMNSLKPEDTAVYYCNTVPYPAYLARMVYWGQGTQVTVTS | high polyreactivity
38 | QVQLVESGRGLVQAGGSLRLSCAASGVIFSIYAMGWYRQAPGKERELVAAISTSGGSTYYADSVKGRFTISRDNAKNTVYLQMNRLKPEDTAVYYCNARRGFYWSWRGRYISGDYWGQGTQVTVSS | high polyreactivity
39 | QVQLVESVGGLVQAGASLRLSCAASGGTFPVYAMGWYRQAPGKEREMVAAISYSGVTTYYADSVKGRFTISRDNAKNTVYLQMNSLKPDDTAVYYCNADWRRWYIFSYDYWGQGTLVTVSS | low polyreactivity
40 | QVQLVESGGGLVQAGGSLRLSCAASGRTFRKYAMGWYRQAPGKERELVAAISWSGGSRYYANSVKGRFTISRDNAKNTVYLQMNSLKPEETAVYYCSAVPVHTGSLYWGFTTGYDYWGQGTQVTVSS | low polyreactivity
41 | QVQLVESGGGLVQAGGSLRLSCAASGSILGLYAMGWYRQAPEKDRELVAASTWSGGSTYYADSVKGRFTISRDNAKNTVYLQMNSLKPEDTAVYYCAALARGYWVVNSLGSYDYWGQGTQVTVSS | high polyreactivity
42 | QVQLVESGGGLVQAGGSLRLSCAASGITFTGNAMGWYRQAPGKERELVAAISNRGGSTYYADSVKGRFTISRDNAKNTVYLQMNSLKPEDTAVYYCRTSTPRRVSGNSWGQGTQVTVSS | high polyreactivity
43 | QVQLVESGGGLVQAGGSLRLSCAASGSTIYHYTMECYRQAPGKERELVAAITYSGGRTYYADSVKGRFTISRDNAKNTVYLQMNSLKPEDTAVYYCAATYSTPGAGYYHYWGQGTQVTVSS | high polyreactivity
